# Laboratory results taken from publication PMC9164268.
# T1: surfactant protein D (human), P35247
# T1 chain: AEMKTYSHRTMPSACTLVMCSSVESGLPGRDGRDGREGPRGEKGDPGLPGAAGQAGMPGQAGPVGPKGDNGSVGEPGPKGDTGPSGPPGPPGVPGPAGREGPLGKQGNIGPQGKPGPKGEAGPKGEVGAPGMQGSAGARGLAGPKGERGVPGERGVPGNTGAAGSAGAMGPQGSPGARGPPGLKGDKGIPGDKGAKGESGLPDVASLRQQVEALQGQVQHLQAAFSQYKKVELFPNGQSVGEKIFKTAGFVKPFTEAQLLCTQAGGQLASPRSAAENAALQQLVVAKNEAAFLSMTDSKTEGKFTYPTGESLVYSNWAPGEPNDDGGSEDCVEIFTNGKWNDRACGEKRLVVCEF
# T2: MAA-adducted surfactant protein D (human), P35247
# T2 chain: T1 chain
# B1: surfactant protein D, P35247 21-375 (natural protein)
# chain: T1 chain
# B2: MAA-adducted surfactant protein D, P35247 21-375 (natural protein)
# chain: T1 chain
# modifications: here or on the partner: malondialdehyde-acetaldehyde (MAA) adducts; MAA adduction occurs primarily on lysine residues; positions not given; malondialdehyde-acetaldehyde (MAA) adducts; MAA adduction occurs primarily on lysine residues; positions not given
# Tests used:
# [1] = molecular target: T1, surfactant protein D (human), P35247; test: SEC; Sephadex G-200 column (1.5 x 12 cm, 20 mL), 0.05 M HNaPO4, 0.15 M NaCl, pH 7; 1.5 mg/mL protein loaded, 12 x 1 mL fractions, isocratic; protein in fractions by Bradford assay and slot blot with anti-SPD and anti-MAA; settings: remark: other sources report otherwise
# [2] = molecular target: T2, MAA-adducted surfactant protein D …; test: as above; settings: remark: other sources report otherwise
stoichiometry N [1],stoichiometry N [2],Binder
3,–,B1
–,3,B2
